# From publication PMC5678579, “Clusterin protects neurons against intracellular proteotoxicity” (Acta Neuropathologica Communications, 2017)
# Molecular target: full length human TDP-43-turboGFP, in vitro translated (human, UniProt Q13148 1-414)
# Assay: cell-based or functional assay
# Chain of full length human TDP-43-turboGFP, in vitro translated (Q13148 whole entry): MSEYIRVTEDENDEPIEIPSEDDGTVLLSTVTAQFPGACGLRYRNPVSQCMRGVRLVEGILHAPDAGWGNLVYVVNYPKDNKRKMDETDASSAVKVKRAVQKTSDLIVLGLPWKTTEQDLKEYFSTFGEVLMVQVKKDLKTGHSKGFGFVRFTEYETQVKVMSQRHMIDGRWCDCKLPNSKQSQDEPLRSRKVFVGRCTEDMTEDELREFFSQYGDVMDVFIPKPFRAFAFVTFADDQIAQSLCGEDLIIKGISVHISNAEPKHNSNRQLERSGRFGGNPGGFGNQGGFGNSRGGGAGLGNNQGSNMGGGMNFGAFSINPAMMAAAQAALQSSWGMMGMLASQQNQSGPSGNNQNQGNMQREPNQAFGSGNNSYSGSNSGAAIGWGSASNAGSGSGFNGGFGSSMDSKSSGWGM
binder,measurement,value
clusterin (CLU) purified from human plasma (natural protein) chain 1: DQTVSDNELQEMSNQGSKYVNKEIQNAVNGVKQIKTLIEKTNEERKTLLSNLEEAKKKKEDALNETRESETKLKELPGVCNETMMALWEECKPCLKQTCMKFYARVCRSGSGLVGRQLEEFLNQSSPFYFWMNGDRIDSLLENDRQQTHMLDVMQDHFSRASSIIDELFQDRFFTREPQDTYHYLPFSLPHRRPHFFFPKSRIVR chain 2: SLMPFSPYEPLNFHAMFQPFLEMIHEAQQAMDIHFHSPAFQHPPTEFIREGDDDRTVCREIRHNSTGCLRMKDQCDKCREILSVDCSTNNPSQAKLRRELDESLQVAERLTRKYNELLKSYQWKMLNTSSLLEQLNEQFNWVSRLANLTQGEDQYYLRVTTVASHTSDSDVPSGVTEVVVKLFDSDPITVTVPVEVSRKNPKFMETVAEKALQEYRKKHREE,"soluble TDP-43-tGFP left after 4 h at 37 °C with 43 nM CLU, against 43 nM BSA (Western blot of the supernatant, densitometry)",8 fold
